In general, Kd refers to a measure of binding affinity in units of concentration. Usually stoichiometry N stands for the number of molecules, sites or subunits per partner or assembly.

Data set [1] relates to ChxR effector domain (ChxREff) (Chlamydia trachomatis). Nature of the data set: EMSA. Particulars: EMSA as in ref 17 (buffer, salt, pH, temperature not given); 1 nM IR800-DNA with 50 nM-10 uM ChxREff, triplicate; 44 uM full-length ChxR (wild type, H186A) in ….
Data set [2] concerns the molecule itself. Briefly: SAXS; full-length ChxR in solution at 1.25, 2.5 and 5.0 mg/ml, 20°C, 5% (v/v) glycerol added; curves extrapolated to infinite dilution; mass estimated from the Porod volume.
Data set [3] concerns the molecule itself. Briefly: SEC; proper folding of the full-length ChxR Ala mutants was assessed by size exclusion chromatography; the sentence on homodimers names no method.

For the molecule DR2 site of chxR promoter, the Kd in data set [1] came out at 450 nM.

B1: full-length ChxR (natural protein, Chlamydia trachomatis, UniProt A0A0H3MDW1 1-227, looked up)
chain: MAGPKHVLLVSEHWDLFFQTKELLNPEEYRCTIGQQYKQELSADLVVCEYSLLPREIRSPKSLEGSFVLVLLDFFDEETSVDLLDRGFWYLIRPITPRILKSAISLFLSQHSLHSVPESIRFGPNVFYVLKLTVETPEGSVHLTPSESGILKRLLINKGQLCLRKHLLEEIKNHAKAIVARNVDVHIASLRKKLGAYGSRIVTLRGVGYLFSDDGDKKFSQQDTKLS
notes: ChxR, atypical OmpR/PhoB subfamily response regulator of Chlamydia trachomatis, full length; The calculated MW of the dimer is ~56 kDa; also called wild-type ChxR; not shown: His-tag (24 residues), N-terminal, kept
For the molecule B1, in data set [2], the “stoichiometry N” value was 2.

B2: full-length ChxR with Ala substitution of Asn182 (natural protein)
chain: MAGPKHVLLVSEHWDLFFQTKELLNPEEYRCTIGQQYKQELSADLVVCEYSLLPREIRSPKSLEGSFVLVLLDFFDEETSVDLLDRGFWYLIRPITPRILKSAISLFLSQHSLHSVPESIRFGPNVFYVLKLTVETPEGSVHLTPSESGILKRLLINKGQLCLRKHLLEEIKNHAKAIVARAVDVHIASLRKKLGAYGSRIVTLRGVGYLFSDDGDKKFSQQDTKLS
notes: ChxR of Chlamydia trachomatis, full-length protein with an Ala substitution; Made from the same plasmid as m1; also called Asn182 substitution; source: mutation introduced into the full-length ChxR plasmid (QuikChange II XL)
B2: the binding result in data set [3] was “binds”.

B3: ChxR^H186A (natural protein)
chain: MAGPKHVLLVSEHWDLFFQTKELLNPEEYRCTIGQQYKQELSADLVVCEYSLLPREIRSPKSLEGSFVLVLLDFFDEETSVDLLDRGFWYLIRPITPRILKSAISLFLSQHSLHSVPESIRFGPNVFYVLKLTVETPEGSVHLTPSESGILKRLLINKGQLCLRKHLLEEIKNHAKAIVARNVDVAIASLRKKLGAYGSRIVTLRGVGYLFSDDGDKKFSQQDTKLS
notes: ChxR of Chlamydia trachomatis, full-length protein with an Ala substitution; Made from the same plasmid as m1; also called His186 substitution; source: mutation introduced into the full-length ChxR plasmid (QuikChange II XL)
For the molecule B3, the binding result in data set [3] was “binds”.

B4: full-length ChxR with Ala substitution of Arg205 (natural protein)
chain: MAGPKHVLLVSEHWDLFFQTKELLNPEEYRCTIGQQYKQELSADLVVCEYSLLPREIRSPKSLEGSFVLVLLDFFDEETSVDLLDRGFWYLIRPITPRILKSAISLFLSQHSLHSVPESIRFGPNVFYVLKLTVETPEGSVHLTPSESGILKRLLINKGQLCLRKHLLEEIKNHAKAIVARNVDVHIASLRKKLGAYGSRIVTLAGVGYLFSDDGDKKFSQQDTKLS
notes: ChxR of Chlamydia trachomatis, full-length protein with an Ala substitution; Made from the same plasmid as m1; also called Arg205 substitution; source: mutation introduced into the full-length ChxR plasmid (QuikChange II XL)
B4: the binding result in data set [3] is on record as “binds”.

B5: full-length ChxR with Ala substitution of Lys192 (natural protein)
chain: MAGPKHVLLVSEHWDLFFQTKELLNPEEYRCTIGQQYKQELSADLVVCEYSLLPREIRSPKSLEGSFVLVLLDFFDEETSVDLLDRGFWYLIRPITPRILKSAISLFLSQHSLHSVPESIRFGPNVFYVLKLTVETPEGSVHLTPSESGILKRLLINKGQLCLRKHLLEEIKNHAKAIVARNVDVHIASLRAKLGAYGSRIVTLRGVGYLFSDDGDKKFSQQDTKLS
notes: ChxR of Chlamydia trachomatis, full-length protein with an Ala substitution; Made from the same plasmid as m1; also called Lys192 substitution; source: mutation introduced into the full-length ChxR plasmid (QuikChange II XL)
Take B5: the binding result in data set [3] was “binds”.
